Molecular target: GST-tagged p21C-terminal peptide
Assay: pull-down

- extent of PCNA depletion: > 95%
Substance: proliferating cell nuclear antigen (PCNA), endogenous (from UniProt P12004 1-261) (natural protein)

Reference: publication PMC4117764
